Experiment [1] relates to P388. In words: Tumor cell proliferation, P388. To be noted: Mus musculus; P388, 72 hours. Type of experiment: cell-based. Here is the method:
(§1) Cell Proliferation Assay. The effect of rK5 and rK5 peptides on endothelial cells were assessed using a proliferation assay with 1% BSA and 3 ng/ml bFGF in serum-free media. Relative cell numbers in each well of a 96 well microplate after incubation for 72 hours in the absence or presence of inhibitors were determined by using the AQueous cell proliferation assay (Promega, San Luis Obispo, Calif.). For all other cell lines tested for proliferation, minimal growth media was used (Cao, Y., Ji, R., Davidson, D., Schaller, J., Marti, D., Sohndel, S., McCance, S., O'Reilly, M., Llinas, M., and Folkman, J. Kringle domains of human angiostatin. Characterization of the anti-proliferative activity on endothelial cells. (1996) J. Biol. Chem. 271, 29461-29467). Results are presented as the percent inhibition of control cell (bFGF-induced) proliferation.

The subject of experiment [2] is B16F10. Put plainly: Tumor cell proliferation, B16F10. The format is cell-based. To be noted: Mus musculus, B16-F10; B16F10, 72 hours. Here is the method: as §1
The test system of experiment [3] is D54. In words: Tumor cell proliferation, D54. The format is cell-based, human. To be noted: Homo sapiens; D54, 72 hours. As for the experimental part: as §1
Experiment [4] relates to D54 human glioma cells.
In experiment [5] the test system is HT1080. In words: Tumor cell proliferation, HT1080. Type of experiment: cell-based, human. The note with it: Homo sapiens, HT-1080; HT1080, 72 hours. Here is the method:
as §1

For experiment [6], the system named is HT-29. In words: Tumor cell proliferation, HT-29. The format is cell-based. The note with it: Homo sapiens; HT-29, 72 hours. Here is the method:
as §1

The test system of experiment [7] is LNCaP. In words: Tumor cell proliferation, LNCaP. Type of experiment: cell-based. To be noted: Homo sapiens, 72 hours. As for the experimental part: as §1
Experiment [8] deals with GRP78 on the surface of human cells (EAHY, HMVEC, HT1080) (human) (UniProt P11021). Put plainly: Scatchard analysis of 125I-dog K5 binding to endothelial cells.
Sequence of GRP78 on the surface of human cells (EAHY, HMVEC, HT1080) (human) (P11021 19-654): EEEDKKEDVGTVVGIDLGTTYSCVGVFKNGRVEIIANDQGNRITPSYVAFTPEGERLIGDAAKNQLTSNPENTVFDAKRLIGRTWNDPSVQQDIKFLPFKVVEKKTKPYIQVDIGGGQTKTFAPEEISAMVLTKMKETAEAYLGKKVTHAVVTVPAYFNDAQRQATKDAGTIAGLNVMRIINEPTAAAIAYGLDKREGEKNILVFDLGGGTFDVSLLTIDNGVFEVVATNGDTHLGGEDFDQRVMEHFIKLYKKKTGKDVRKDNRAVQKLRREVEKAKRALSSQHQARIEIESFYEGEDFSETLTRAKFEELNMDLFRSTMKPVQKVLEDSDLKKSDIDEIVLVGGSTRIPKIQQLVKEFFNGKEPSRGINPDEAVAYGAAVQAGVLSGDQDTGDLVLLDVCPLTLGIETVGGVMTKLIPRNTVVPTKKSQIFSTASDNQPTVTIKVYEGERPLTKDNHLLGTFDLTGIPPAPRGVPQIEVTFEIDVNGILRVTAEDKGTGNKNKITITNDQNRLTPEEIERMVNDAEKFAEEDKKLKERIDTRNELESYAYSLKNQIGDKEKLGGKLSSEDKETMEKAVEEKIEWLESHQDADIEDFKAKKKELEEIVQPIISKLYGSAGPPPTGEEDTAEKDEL
Experiment [9] shares this target. Put plainly: Scatchard analysis of 125I-dog K5 binding to endothelial cells (50,000 cells per well, 1 hour room temperature).
Experiment [10] has the same target. In words: cell-based or functional assay.
For experiment [11], the target named is T1, GRP78 on the surface of human cells (EAHY, HMVEC, HT1080) (human, UniProt P11021 19-654). In words: cell-based or functional assay.
T1 sequence (P11021 19-654): as above
Experiment [12] deals with T2, yeast-expressed recombinant human GRP78 (rGRP78) (human, UniProt P11021 19-654, limits assumed).
T2 construct: also called recombinant GRP78
T2 sequence (P11021 19-654 limits assumed): as the sequence (P11021 19-654) above
Put plainly: equilibrium dialysis of rGRP78 and 3H-K5 (FIG. 14A).

In experiment [13] the target is T1, GRP78 on the surface of human cells …. In words: cell-based or functional assay. This is another data set of the same source.
Experiment [14] has the same target. Put plainly: labelled K5 binding to endothelial cells (FIG. 10A).
The test system of experiment [15] is HMVECs. In words: Competition of 3HK5 binding to endothelial cells. More on the design: species or system human. To be noted: 2 nM 3HK5; rK5(K82A) up to 500 nM. Here is the method:
Each K5 peptide or a N-terminal antibody to GRP78 was added to HMVECs at various concentrations for 1 hour at room temperature. Cells were washed and the amount of ^3HK5 bound was counted.
Binding of human ^125IrK5 to Endothelial Cells: Tritium-labeled rK5 was added to monolayers of 50,000 HMVEC cells that were either starved or stimulated for 16 hours by 15 ng/ml bFGF and 5 ng/ml VEGF in 96 well plates. The number of counts remaining bound to the cells after extensive washing determined total amount of rK5 bound (Dudani A K, Ganz P R. Endothelial cell surface actin serves as a binding site for plasminogen, tissue plasminogen activator and lipoprotein(a). Br J Haematol. 1996 October; 95(1): 168-78). Binding of ^125IK5 (dog) to Endothelial Cells and rK5 to Recombinant GRP78: The same methods as described above for the expression and purification of human K5 were used to express dog rK5 in E. coli. ^125IK5 (dog) was added to the wells and incubated at room temperature for 1 hour. After 1 hour the cells were washed and lysed with M-Per (Pierce, Racine, Wis.) and the amount of ^125IK5 (dog) bound was counted. Scatchard plot analysis was performed using Prism (GraphPad Software, Inc., San Diego, Calif.) software. Competition binding against 5 nM ^125IK5 (dog) was tested using a monoclonal antibody against GRP78 (N-20, Santa Cruz, Calif.) or a monoclonal antibody against K5 (Green Mountain Antibodies, Burlington, Vt.). The antibodies were added to HMVECs at various concentrations for 1 hour at room temperature. Cells were washed and the amount of bound ^125IK5 (dog) bound was counted. Competition binding was also tested against 2 nM 3HK5. K5 peptides or a c-terminal antibody to GRP78 (A-129, Santa Cruz, Calif.) were added to HMVECs at various concentrations for 1 hour at room temperature. Cells were washed, lysed and the amount of ^3HK5 bound was estimated by scintillation counting.

The target in experiment [16] is T3, recombinant human GRP78 (rGRP78) (Homo sapiens, UniProt P11021).
T3 construct: host or cells: yeast
T3 sequence (P11021 19-654): as above
In words: Equilibrium dialysis of rGRP78 and 3HK5. Type of experiment: binding. To be noted: competition dialysis, 2 nM GRP78 and 2 nM 3HK5; mutant up to 25-fold excess of GRP78. As for the experimental part: FIG. 14A is a graph showing equilibrium dialysis of recombinant GRP78 (rGRP78) and ^3HK5. ^3HK5 was added to one side of an equilibrium chamber at concentrations from 0.1 to 3 nM. 2 nM GRP78 was added to the other side of the chamber with a […] mwco filter between. ^3HK5 was allowed to equilibrate to both side of the chamber for 72 hours at room temperature. The amount of ^3HK5 on the GRP78 side of the chamber was compared to chamber with ^3HK5 alone to obtain the bound verses free rK5 distribution.
FIG. 14B is a graph showing competition binding dialysis rGRP78 and ^3HK5. Experiments were performed with 2 nM GRP78 and 2 nM ^3HK5 using rK5(K82A) mutant and unlabeled rK5 at various concentrations from 0.5 to 50 nM. The amount of ^3HK5 on both sides of the chamber was measured after 72 hours and compared to the control.
Binding of rK5 to rGRP78 was measured using equilibrium dialysis (Kariv I, Cao H, Oldenburg K R. Development of a high throughput equilibrium dialysis method. J Pharm Sci. 2001 May; 90(5):580-87). In the top well of a 96 well equilibrium dialyzer (molecular weight cut off 50K Daltons, Harvard Apparatus, Holliston, M A) 150 μl of 10 nM rGRP78 was added. In the reciprocal (bottom) chamber, 150 μl of increasing concentrations from 0.1 to 50 nM ^3HK5 was added. The chambers were shaken at room temperature for 72 hours. […]

Positions count from the first letter of the chain named. Names may count otherwise. Converted amounts (≈) assume the structure as drawn.

With `COc1cccc2c1C(=O)c1c(O)c3c(c(O)c1C2=O)C[C@@](O)(C(=O)CO)C[C@@H]3O[C@H]1C[C@H](N)[C@H](O)[C@H](C)O1` [Adriamycin, reference compound], the IC50 was 2.6 ± 0.2 ng/mL (≈ 4.78 nM) in experiment [1]; 3.2 ± 0.4 ng/mL (≈ 5.89 nM) in experiment [2]; 5 ± 0.4 ng/mL (≈ 9.2 nM) in experiment [3]; 2 ± 0.3 ng/mL (≈ 3.68 nM) in [5]; 118 ± 8 ng/mL (≈ 217 nM) in experiment [6]; 410 ± 100 ng/mL (≈ 754 nM) in experiment [7]. The “effect against D54 cell growth in combination with rK5” value in experiment [4] (Adriamycin 50 nM in combination with rK5, 72 hours) is “very effective”. The “inhibition of D54 cell growth, Adriamycin alone” value in experiment [4] (Adriamycin 50 nM, 72 hours) is “did not inhibit”.
The molecule “recombinant dog kringle 5, radioiodinated (^125IrK5 (dog)) (ligand)” registered a binding sites per cell (binding sites per cell) in [8] of 32500. The molecule also came in with an equilibrium dissociation constant (Kd) in [9] of 0.8 nM. The molecule further had an IC50, inhibition of VEGF stimulated HMVEC migration in [10] of 0.5 nM.

B1: recombinant human kringle 5 (rK5), Kringle 5 (450-543) of human plasminogen (ligand, UniProt P00747 469-562, looked up)
chain: LLPDVETPSEEDCMFGNGKGYRGKRATTVTGTPCQDWAAQEPHRHSIFTPETNPRAGLEKNYCRNPDGDVGGPWCYTTNPRKLYDYCDVPQCAA
modifications: tritium-labelled where printed as ^3HK5
notes: range 450-543; Made in E. coli (His-tag removed by enterokinase) and in Pichia pastoris; Labelled and unlabelled rK5 are treated as one molecule; also called ^3HK5; H^3K5
For B1, in [11], the “IC50, endothelial cell migration assay (^3HK5)” value is 0.2 nM and the “apoptosis of HT1080 cells under hypoxic conditions” value is over 2 fold. Besides, the equilibrium dissociation constant (Kd) in experiment [12] is about 0.7 nM. Also, the “IC50, inhibition of VEGF stimulated HMVEC migration” value in experiment [13] was determined as 0.2 nM. The affinity in experiment [14], expressed as Kd, was 0.8 nM.

B2: rK5(K82A): mutant rK5(K82A) (protein)
chain: B1 chain with K82A
Take B2: in [15], the “blocking of 3HK5 binding to endothelial cells” value is given as “did not inhibit”. The “blocking of 3HK5 binding to rGRP78” value in experiment [16] was “did not block binding”.

For orientation: IC50 means the concentration needed to halve the response being measured. A high value points to a need for much substance. In general, Kd refers to the constant that tells how readily two partners part at equilibrium.

The record behind these values is patent publication US20050053993A1, “Uses of an endothelial cell receptor” (priority 2002, published 2005).
